Assay: soluble fraction after stress (log2 fold change); higher = more stays soluble; pooled small domains, quantitative proteomics
Conditions: stress: pH 4
Method in brief: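 Aggregation propensity is read out as the fold change in how much of each domain remains soluble after acid stress. The custom small-domain libraries were pooled, held at pH 4 and analysed with high-throughput quantitative proteomics. On the log2 scale used, higher values mean more of the domain stayed soluble.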

HMNNISKKIKELREQNNITQNKLANDLFIKQQTVAQWENGSRALKADSIISLAKYFNVSTDYLLGLTEN
soluble fraction (log2): -0.634

HMNNLKTKELSKIGYTNDKARSLVISIIPKHFKYHSKSEIIELLTNIKNKPEDYVSDEILGKIAETFMEKI
soluble fraction (log2): -1.19

HMNNLSEELNVTFPRTRDQLLNILHYVQHKYGYISKVSMQEIGNHIKMPVSEIYGTVTSYSEFKI
soluble fraction (log2): -0.965

HMNNLTEEAINHLVLEVKNVLLTDALFLGKATDSQLMLRIKETIDQRNGQYNIGMNDRERIARRVFARLR
soluble fraction (log2): ≥ 0.43

HMNNLVGKTKVLKSNTNIYAYKTMSGKFYSYLPNTRVRVLQDLGYINYIEVIATKRRGYVYENVY
soluble fraction (log2): -0.165

HMNNNIFVYPNPSINYINIDSDEEIWKLEIIQMSGEKINILPFSKRIDISFLSKGLYILNFNNYYIKFIK
soluble fraction (log2): -0.937

HMNNQIFGLKFRQLRKQQHITLAKAAAGITSRQSLGNWETGKGELAFEKVLLLLKKINVQPIDFLESSIS
soluble fraction (log2): 0.264

HMNNQILYERLRDLRERNHFTQAFVSSKLNIGRATYSNYERGKRTPSLDVIMDLASFYKVPFTYF
soluble fraction (log2): 0.113

HMNNQMTFSKFLNEVDAGRVVEVEIQGNNIKGVLADGNRFNTFSPNYPNLVEKLSDKGVSITAAPK
soluble fraction (log2): 0.205

HMNPASVLDGLKITSFSPTRAIVAGPGGSRIVFDNEAVVLGGIEWDVHIQRNGIEFTSQGQTVLLLFDRS
soluble fraction (log2): -0.514

HMNPDDEMLLTYLTKLLVDKQFIVNSNDIFEYILRRVDRTYDGIYDIVSKLDVLSLEKKRQLTIPLIKEI
soluble fraction (log2): 0.103

HMNPETIHNDYKAFIKFAFSGLSYYSKVWNQNREMITPGLLETLWQKYRHLSIGEIETILEKIIKEG
soluble fraction (log2): -1.24

HMNPGNTESFPVYQKRLGEIIQTLAGKKGQDINSPEVKELVGEYDFLTKQMFQLPDATSMVMEIATAYRN
soluble fraction (log2): -0.224

HMNPKTELMVYLKKRDEWVASQILSDVLQVSTRTIRKFVKEINMDYQTENVILSSSKGYKLNQNLLSSL
soluble fraction (log2): -0.281

HMNPLPALLRYFRQKAGLTQQDVAAALSISRSGYANYEEGRNIPNIEQAIKLSELLNHDFLYAYTLSS
soluble fraction (log2): -0.749

HMNPNYIKKLREKNQLTQEYLAAQIGVSRPTYAQIEQGQRGLTVTEAKKMADIFSLALDDFLAEKN
soluble fraction (log2): -0.442

HMNPSIALHDWLQSSEFKGSINLFAAALGMNPRTVEAWVYGRSTPSRRFWAKLYQITNLSRFRL
soluble fraction (log2): 0.22

HMNPYLWQRVRLLFSNVGVINNSATVDLVFSAPKGVLTEDLANNFSAALVKKGKEELGLDDIKITISVIPN
soluble fraction (log2): -2.21

HMNQADNFNSLTKREKDVLLLVTQGESNKSIADKLVLSEVTVKSHLNSIFKKLNVTNRTQAVLVAMQMNLV
soluble fraction (log2): -0.85

HMNQAIIVPDVKGLPLEEATTFFENNDLRYTVIDSVYTKDVPPGAIYEMVPGAGSKVKEGRIIFVTLNAR
soluble fraction (log2): -0.565

HMNQASLTYSEFIANVESKAITRVTISGDTISGILADGKPFQTIYPMADLELLPILRRSGVDINVKEVQ
soluble fraction (log2): 0.22

HMNQEIELLLREPDFTSAARLAMAINERFTNSARAIDPTSVKVRMPEGLDQASVDFVARLEDIEMSPDT
soluble fraction (log2): -0.587

HMNQEQQSAVMSALKATLPDLEAALEARQFKESKQLLKTAQNQFQQLDGRNRRGFQARIQLLAGQFRELS
soluble fraction (log2): -0.00484

HMNQIDDADRKRVVDEVAGQFSSMSLTEMRSDREKLLSRIIPQVQTTLNRLGLQTIDVEGIAREVIARVG
soluble fraction (log2): -0.288

HMNQIFAPMPGLVLEVKLSEGDVVAEGESAIILEAMKMENIIKSPINGIVKKVHVKKGQTIEKNTLIISFK
soluble fraction (log2): -1.06

HMNQLSYTERRVLQVIEGGTTKTGEIEQALAAKMSRPTVHRALDALVGANRIHRLARGEYALGPAP
soluble fraction (log2): 0.321

HMNQRQKQLLSILEQQGDWMKGKALATLLAVSDRTIRSDIEKINREVEGSILSHPHKGYLLSVENRQIAET
soluble fraction (log2): 0.0959

HMNQSKYQTIADELKSKILSGEYPENTTIPPELQLQKDYQVSRHTIRQAIALLANEGFLRKEKGSGTYVDV
soluble fraction (log2): 0.254

HMNQTTYTVLYSGMDPADTGKVLTALNEMGVDARTQGEDTVLVPADRADEIRLELAAQGYPTS
soluble fraction (log2): -0.0312

HMNQYIFVLNEKGARITSFVDNTIPKEELIALAKQDYPNAADYIYSADGDSMLDEFMRGKLYVNGQFVAA
soluble fraction (log2): -0.475

HMNREIVVYITGAVDNPGLYRLPLDSRLDDVLKLAVLSTNADREVLNPAQKLKDGQKIVVPYIVE
soluble fraction (log2): -0.452

HMNRGITVIVNNEEIKMKEKAQYVVVDIFDYIDFDLTVPKGSINITLNGENTPYTASIKDGDVIEVFW
soluble fraction (log2): -1.56

HMNRIARRELMEQLFADNKITTQEQLQQLLRAEGVEVTQATISRDMRILNIVKVSDQNGNTYYKQMK
soluble fraction (log2): 0.0823

HMNRIEMTEPIIIKDLSRETGIPWVAIQKRLAQDGIMANINTTIEAEKAQLIAVDYGIELAVV
soluble fraction (log2): -0.54

HMNRIGERIKRKRELRNLNLGELAEKVGISASALSQIEKSKSFPSVITLKSIAEQLRTTVGELIGEN
soluble fraction (log2): 0.328

HMNRIKIYPTPGSKVLSIENINFSLIHDFKILDIFGREVKNFTVSSEKNTKMLVDTSKLSDGLYFIFFNTF
soluble fraction (log2): -0.61

HMNRLEFLQGLKAELEGRVPHSIIQENLRYYDSYISDEAAKGQSEEDVVESLGGPRIIARTIVDAA
soluble fraction (log2): -0.52

HMNRNEFMERLEYLLSDIPQEEKADAIAYYRDYLEEAGDDAGKAIQDFGSPERIAAMIRSELAG
soluble fraction (log2): -0.841

HMNRQTGTVKWFNDAKGFGFITPESGPDLFVHFRSIQGAGFKSLQEGQRVTFVAVQGQKGMQADQVQA
soluble fraction (log2): -0.429

HMNRTKQIYNELLFRLDQGVYPPESKFPSESQLADEFSVSKVTMNKIVSMLASSGRLSRGVRGAGTFVSSP
soluble fraction (log2): 0.319

HMNRYPIQTEVHAFNDDIIKEAINFEMSRGGQIFFVNNRIPQLYELENTIHRLVPDARVVIGHGQMP
soluble fraction (log2): -0.722

HMNSFKIYPNPSSREVVRFNQAQDVKVYDTLGKLILSAKNTSAIDTKSFNTGIYFIKTANGLTKKLIV
soluble fraction (log2): -0.0877

HMNSGFEVFREVVNQGSFIGAANALGISAPAVSKQIKLLENRLGLLLLYRTTRNVTLTDIGKQLFDTLDNS
soluble fraction (log2): -1.37

HMNSKKRQAILESLRSVTDHPTAEMIYNRLKPEYPDLSLGTVYRNLAMFLEEGQVISVGTVDGQERYDAR
soluble fraction (log2): 0.34

HMNSKSFIFHIEDEEGIRLDVFLADNLPDVSRSYVQKLIDEEHVKVNGQSAKSRLKTVSGMEITVDVPAPK
soluble fraction (log2): -0.543

HMNSLGYSDFVVDVQNERVASVVIEGLIINGERRDGTKFRTVLPTIGDQRLMDDLINHNVKVLARE
soluble fraction (log2): 0.226

HMNSLTVPDITNRTLAEASQVLLDMGLTPIPDAVAKDGVGDDVVYAQSPPPNVGAREGDVVTITYNPA
soluble fraction (log2): 0.093

HMNSNISYSEFLSQVEKGTINSVEITGNSIKGIYADGGEFITFSPGDPGLIDKLQRSDIEILATPPA
soluble fraction (log2): -0.593

HMNSPSKVIDISQLRKGMFVQLDLGWMSHPFAVGSFKVSTDEQIQTLRGLGLSEVRYIPEKSDPA
soluble fraction (log2): -0.896

HMNSQSGKGGVGYILETKYGLNLPPKMREAMGYAAKGVSDHLHKELHPDEIFDLFKKTFENVGQPYS
soluble fraction (log2): 0.197

HMNSSLLGKRIKSLREDHDLTQKELSLMIGLTPKMISFYENNQRTPPLDILLKLAKIFEVSVDYLIGYA
soluble fraction (log2): -0.0642

HMNSTRAPYLLDFEEDAAIREARRAGLVPRIARQPSGEPVGRVILQSHDYDYPMKRGDTILITISSG
soluble fraction (log2): -0.797

HMNSTSGIAGVGYWINQYRKKKGMSPVDKKSPLVRRVYDWVQEQYDEGRITIISDAELTRQTELAMEA
soluble fraction (log2): 0.0383

HMNSVAASLREISIKVSGTEDADKVSRLQELSQMPKLDASGIAEANTLLEQLRAKYGDLGLSVDTARGRIV
soluble fraction (log2): 0.0674

HMNSVSIAPEMLNWVIAHIQMNSLPKQIVEHLTAWISGQKEPTFNQIEKVSRATGIPLGYFFLEQPPKE
soluble fraction (log2): -1.02

HMNSYKGELLVDDKNIRLDLYLFNQFNFFSRTKIKNYILKGNVLVNNNKTSPSYILKGSEKIYYDFSVS
soluble fraction (log2): -0.251

HMNTEVDKVLLRSGEAYFGEVLLRNDELVMMKTQDGARFQFPVSEIKSIEKVSVADALRHINS
soluble fraction (log2): 0.162

HMNTGFPIILETSDAANLTVGAPIMYRGVEVGKIRNMELNSLGDRVLIHILIGHKYQHLVRQNSEFWFSS
soluble fraction (log2): -2.1

HMNTKDRIKQLAAQRKITIAELERKLHIANGTIGKWDKQNPSIEPLKKLADYFGVTTDYLLGRT
soluble fraction (log2): -0.219

HMNTKLKPLYLLDIFREMTDERHRMTVPELLEELQRRGITAERKGIYRDIDALIQYGADIKHTGTGYYLAR
soluble fraction (log2): 0.18

HMNTKLSYSDLIEKIEAGQVEKVELDAGGSSAIVKLKNDNIEKRVNVPSIDNLMENLQDNMKTGNISVTE
soluble fraction (log2): -0.202

HMNTLLGLSNSFQDNKDLENANSISRRFISYRPRSEAELRIRLLKVFSHEIVLESVAQMYREGLLNDQRF
soluble fraction (log2): -1.65

HMNTLTKEDIQKAIDVIPIDFKSVVILNLVEGFSYKETAEILEIPIGTVMSRLHRGRKILQKLLWEYSSSK
soluble fraction (log2): -0.557

HMNTTTTKVVSVSSLNMRSGPSTSYNIIEVLTKDTQVEVISVEDGWAKIKYNSKTGYVSNQYLSDKK
soluble fraction (log2): -0.0101

HMNTVAKELATQATQAKKRAFLDAYAETGIIKRAAEIAGIERKSHYLWLEKDPEYVEAFKSAGEQ
soluble fraction (log2): -0.0116

HMNTVSVGNLGLSVRAVNALKQAGIDTYDKLQELSWEELLLIPKLGQVTAAEIYRFITSYKKG
soluble fraction (log2): -0.491

HMNVAETITLGKRLFNHALTILGKKQRNISRKQLKNFLNDLGLKDSKDLYESIGTGDKNPILMAQLLLG
soluble fraction (log2): -0.0687

HMNVAVGNSKLVGVAGERAYFVNGVGAAARTLSLQVGDALPTGEKVRRIERDGVTMTGASGDVRLSVLP
soluble fraction (log2): 0.138

HMNVDALIGTKGIVVQPIRPFAVGQVKVNGQVWSAVGKTPETDIEQGREVKVHAIEGVKLVVTPT
soluble fraction (log2): -0.134

HMNVDALVGMPARVTRAFVQGAGEVKLDNGETWTARLSAGVTDAEASVGQTVSVIAVRGAAVEVAPE
soluble fraction (log2): 0.158

HMNVDSLIGKKARVLEDIDNLNAKGQVSIDGMEWTARSEDGSEIKKDALVEVVAIEGVKAIVKQ
soluble fraction (log2): -0.127

HMNVEQQNQARENIKRLMEEQGLSQPKLSEKAGIAFGTLSRILRGKQDLTIQTAEKIADALGLSVYDLAE
soluble fraction (log2): 0.247

HMNVKVSVDDIARPGLMASGRVTFADGNRGMWYVDEMGRLGIDPEVEGYQPSEADIQAFQRELQSVMES
soluble fraction (log2): -0.927

HMNVNSQQINDLEKSIQKFFDKDIKNYLNQNLSNDRMISKNEIDKIILLYYGSDKEPTLDEIKSIFN
soluble fraction (log2): -1.19

HMNVNTHKTLILNSTFQPLSLATPQRALALLFSKKINVLKESDIKLRSVGQSVAIPKVAVLTYFVKA
soluble fraction (log2): 0.132
